Source: patent publication US20250019438A1 (AstraZeneca / MedImmune, published 2025)
Changes are numbered by the printed parent chain.

B1: AZ Vκ 7 + AZ VH 13 (antibody, IgG1, V domains shown)
VH: EVQLVESGGALVKPGGSLRLSCAASGFTFTKAYMHWVRQAPGKQLEWVAQIKDRSQSYATYYAESVKGRFTISRDDSKNTLYLQMNSLKTEDTAVYYCRGVYYALSPFDYWGQGTLVTVSS
VL: DIVMTQSPLSLPVTPGEPASISCRSSQSLVHNTGNTYLSWYLQKPGQSPQSLIYKVSNRASGVPDRFSGSGSGTDFTLKISRVEAEDVGVYYCGQGTQYPFTFGSGTKVEIK
notes: member of the group m34
B2: AZ Vκ 7 + AZ VH 21 (antibody, IgG1, V domains shown)
VH: B1 VH with T30S, K31N
VL: B1 VL
notes: member of the group m34
B3: AZ Vκ+AZ VH IgG1-TM (antibody, V domains shown)
VH: QVQLVESGGGVVQPGRSLRLSCAASGFTFTKAWMHWVRQAPGKQLEWVAQIKDKSNSYATYYADSVKGRFTISRDDSKNTLYLQMNSLRAEDTAVYYCRGVYYALSPFDYWGQGTLVTVSS
VL: B1 VL with S7T, P12S, E17Q, R24K, T33N, G34A, A60F
notes: also called parental AZ Vκ+AZ VH IgG1-TM; parental anti-CD3 antibody
B4: EGFR-CD3 DuetMab with the parental anti-CD3 arm (bispecific antibody, part only; not given: anti-EGFR arm, constant regions, V domains shown, not shown: another chain or arm of the molecule; a dimerising Fc or GST; small tags and cut ends)
VH: B3 VH
VL: B1 VL with S7T, P12S, E17Q, R24K, T33N, G34A, A60F
B5: EGFR-CD3 DuetMab with anti-CD3 variant AZ Vκ 29 + AZ VH SN75 (bispecific antibody, part only; not given: anti-EGFR arm, constant regions, V domains shown, not shown: another chain or arm of the molecule; a dimerising Fc or GST; small tags and cut ends)
VH: B1 VH with T30S, K31N, Y33W, S57T, L105N, S106A
VL: B1 VL with Y99F
B6: EGFR-CD3 DuetMab with anti-CD3 variant AZ Vκ 29 + AZ VH SN79 (bispecific antibody, part only; not given: anti-EGFR arm, constant regions, V domains shown, not shown: another chain or arm of the molecule; a dimerising Fc or GST; small tags and cut ends)
VH: B1 VH with T30S, K31N, Y33W, S57T, L105V, S106T
VL: B1 VL with Y99F
B7: EGFR-CD3 DuetMab with anti-CD3 variant AZ Vκ 29 + AZ VH SN82 (bispecific antibody, part only; not given: anti-EGFR arm, constant regions, V domains shown, not shown: another chain or arm of the molecule; a dimerising Fc or GST; small tags and cut ends)
VH: B1 VH with T30S, K31N, Y33W, S57T, L105N, S106T
VL: B1 VL with Y99F
B8: EGFR-CD3 DuetMab with anti-CD3 variant AZ Vκ 29 + AZ VH E75 (bispecific antibody, part only; not given: anti-EGFR arm, constant regions, V domains shown, not shown: another chain or arm of the molecule; a dimerising Fc or GST; small tags and cut ends)
VH: B1 VH with K31E, Y33W, S57T, L105N, S106A
VL: B1 VL with Y99F
B9: EGFR-CD3 DuetMab with anti-CD3 variant AZ Vκ 29 + AZ VH E79 (bispecific antibody, part only; not given: anti-EGFR arm, constant regions, V domains shown, not shown: another chain or arm of the molecule; a dimerising Fc or GST; small tags and cut ends)
VH: B1 VH with K31E, Y33W, S57T, L105V, S106T
VL: B1 VL with Y99F
B10: EGFR-CD3 DuetMab with anti-CD3 variant AZ Vκ 29 + AZ VH E82 (bispecific antibody, part only; not given: anti-EGFR arm, constant regions, V domains shown, not shown: another chain or arm of the molecule; a dimerising Fc or GST; small tags and cut ends)
VH: B1 VH with K31E, Y33W, S57T, L105N, S106T
VL: B1 VL with Y99F
B11: EGFR-CD3 DuetMab with anti-CD3 variant AZ Vκ 17 + AZ VH R75 (bispecific antibody, part only; not given: anti-EGFR arm, constant regions, V domains shown, not shown: another chain or arm of the molecule; a dimerising Fc or GST; small tags and cut ends)
VH: B1 VH with K31R, Y33W, S57T, L105N, S106A
VL: B1 VL with Y99A
B12: EGFR-CD3 DuetMab with anti-CD3 variant AZ Vκ 17 + AZ VH R79 (bispecific antibody, part only; not given: anti-EGFR arm, constant regions, V domains shown, not shown: another chain or arm of the molecule; a dimerising Fc or GST; small tags and cut ends)
VH: B1 VH with K31R, Y33W, S57T, L105V, S106T
VL: B1 VL with Y99A
B13: EGFR-CD3 DuetMab with anti-CD3 variant AZ Vκ 17 + AZ VH R82 (bispecific antibody, part only; not given: anti-EGFR arm, constant regions, V domains shown, not shown: another chain or arm of the molecule; a dimerising Fc or GST; small tags and cut ends)
VH: B1 VH with K31R, Y33W, S57T, L105N, S106T
VL: B1 VL with Y99A
B14: EGFR-CD3 DuetMab with anti-CD3 variant AZ Vκ 17 + AZ VH SN75 (bispecific antibody, part only; not given: anti-EGFR arm, constant regions, V domains shown, not shown: another chain or arm of the molecule; a dimerising Fc or GST; small tags and cut ends)
VH: B1 VH with T30S, K31N, Y33W, S57T, L105N, S106A
VL: B1 VL with Y99A
B15: EGFR-CD3 DuetMab with anti-CD3 variant AZ Vκ 17 + AZ VH SN79 (bispecific antibody, part only; not given: anti-EGFR arm, constant regions, V domains shown, not shown: another chain or arm of the molecule; a dimerising Fc or GST; small tags and cut ends)
VH: B1 VH with T30S, K31N, Y33W, S57T, L105V, S106T
VL: B1 VL with Y99A

Target: T1, Human CD3 on HPB-ALL and Jurkat cells (human, UniProt P07766 23-207; P04234 22-171; P09693 23-182)
T1 construct: whole, on cells; also called hCD3+; human CD3+ cells
Assay: flow cytometry on HPB-ALL cells (hCD3+), detection with Alexa Fluor 647 goat F(ab')2 anti-human IgG Fcγ
Experimental: (§1) Flow Cytometry was used to determine specific cell surface antigen binding. The human leukemia T cell lines HPB-ALL, Jurkat, Jurkat TCR KO, and cynomolgus T cell line HSC-F were used to assess human CD3 and cynomolgus CD3 binding, respectively. Briefly, 1×10⁵ cells were suspended in FACS buffer (1×PBS, pH 7.2 supplemented with 2% heat-inactivated FBS, 0.1% sodium azide and 2 mM EDTA) and placed into each well of a round-bottom 96-well plate. Antibodies were diluted to various concentrations using FACS buffer and added to the cells. Antibodies and cells were washed twice with FACS buffer after incubation at 4° C. for 30 min. Cell surface antigen binding of antibodies was detected with Alexa Fluor 647-conjugated goat F(ab′)₂ fragment specifically against human IgG Fcγ fragment. Data was collected using a BD FACSymphony A3 Cell Analyzer (BD Biosciences). Data was analyzed with FlowJo v10.6.1 and plotted using GraphPad Prism v9.0.0.

T1 sequence (P07766 23-207, chain 1 of 3): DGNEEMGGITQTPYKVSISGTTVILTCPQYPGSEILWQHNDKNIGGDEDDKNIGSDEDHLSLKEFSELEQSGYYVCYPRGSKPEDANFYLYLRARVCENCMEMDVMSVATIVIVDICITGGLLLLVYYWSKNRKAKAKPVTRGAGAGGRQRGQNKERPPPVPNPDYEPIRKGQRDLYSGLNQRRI
T1 sequence (P04234 22-171, chain 2 of 3): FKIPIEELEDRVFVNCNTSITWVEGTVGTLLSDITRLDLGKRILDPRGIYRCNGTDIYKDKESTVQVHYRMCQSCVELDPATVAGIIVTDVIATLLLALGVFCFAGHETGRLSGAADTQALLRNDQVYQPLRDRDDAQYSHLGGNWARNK
T1 sequence (P09693 23-182, chain 3 of 3): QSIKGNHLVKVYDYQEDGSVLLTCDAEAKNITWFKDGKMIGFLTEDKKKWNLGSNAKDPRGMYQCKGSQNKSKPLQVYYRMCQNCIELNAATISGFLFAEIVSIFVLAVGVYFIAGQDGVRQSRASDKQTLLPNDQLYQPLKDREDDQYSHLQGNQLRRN

Binder | binding result
B1 | binds
B2 | binds

Target: T2, Cynomolgus monkey CD3 on HSC-F cells (cynomolgus monkey, UniProt Q95LI5 22-198; Q95LI8 22-171; Q95LI7 23-181)
T2 construct: whole, on cells; CD3 complex; also called cyCD3+; cynomolgus CD3+ cells
Assay: flow cytometry on HSC-F cells (cyCD3+), detection with Alexa Fluor 647 goat F(ab')2 anti-human IgG Fcγ
Experimental: as §1

T2 sequence (Q95LI5 22-198, chain 1 of 3): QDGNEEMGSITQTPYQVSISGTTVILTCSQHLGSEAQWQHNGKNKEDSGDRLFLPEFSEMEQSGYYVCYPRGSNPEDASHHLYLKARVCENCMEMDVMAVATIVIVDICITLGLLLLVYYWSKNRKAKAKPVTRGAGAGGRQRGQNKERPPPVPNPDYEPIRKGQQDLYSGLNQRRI
T2 sequence (Q95LI8 22-171, chain 2 of 3): as the sequence (P04234 22-171, chain 2 of 3) above, with I5V, N15K, I20V, S32T, D33N, I34N, T64A, S74N, V83L, H141R counted along it
T2 sequence (Q95LI7 23-181, chain 3 of 3): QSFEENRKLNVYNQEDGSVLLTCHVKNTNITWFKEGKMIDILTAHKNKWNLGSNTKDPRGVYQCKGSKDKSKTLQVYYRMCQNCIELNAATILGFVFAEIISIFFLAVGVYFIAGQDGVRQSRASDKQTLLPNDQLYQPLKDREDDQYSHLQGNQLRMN

Binder | EC50 (read off the curve)
B3 | ~40 nM

Target: T1, Human CD3 on HPB-ALL and Jurkat cells
Assay: flow cytometry on HPB-ALL cells (hCD3++), EGFR-CD3 DuetMab, detection with Alexa Fluor 647 goat F(ab')2 anti-human IgG Fcγ

Binder | EC50 (read off the curve)
B4 | 50 nM

Target: T2, Cynomolgus monkey CD3 on HSC-F cells
Assay: flow cytometry on HSC-F cells (cyCD3++), detection with Alexa Fluor 647 goat F(ab')2 anti-human IgG Fcγ
Experimental: as §1

Binder | binding result | EC50 (read off the curve)
B1 | binds | –
B2 | binds | –
B3 | – | ~40 nM

Target: Biotinylated recombinant human CD3εδ (Acro Biosystems, CDD-H82W6) (human) (UniProt P07766)
Assay: Octet BLI, biotinylated CD3εδ on streptavidin sensors, 1:1 model

Chain of Biotinylated recombinant human CD3εδ (Acro Biosystems, CDD-H82W6) (human) (P07766 23-126, stated change not applied, chain 1 of 2): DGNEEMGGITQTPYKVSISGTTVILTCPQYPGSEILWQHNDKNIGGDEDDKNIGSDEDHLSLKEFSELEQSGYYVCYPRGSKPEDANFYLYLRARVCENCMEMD
Chain of Biotinylated recombinant human CD3εδ (Acro Biosystems, CDD-H82W6) (human) (P04234 22-105, stated change not applied, chain 2 of 2, further chain): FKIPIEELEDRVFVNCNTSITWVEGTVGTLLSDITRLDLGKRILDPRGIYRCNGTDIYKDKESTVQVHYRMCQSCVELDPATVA

Binder | Kd | koff | kon
B4 | 24.3 nM | 0.00105 s⁻¹ | 43300 M⁻¹ s⁻¹
B5 | 1010 nM | 0.0282 s⁻¹ | 27900 M⁻¹ s⁻¹
B6 | 2670 nM | 0.114 s⁻¹ | 42800 M⁻¹ s⁻¹
B7 | 1860 nM | 0.0422 s⁻¹ | 22700 M⁻¹ s⁻¹
B8 | 2220 nM | 0.0404 s⁻¹ | 18200 M⁻¹ s⁻¹
B9 | 4580 nM | 0.118 s⁻¹ | 25800 M⁻¹ s⁻¹
B10 | 5000 nM | 0.0755 s⁻¹ | 15100 M⁻¹ s⁻¹
B11 | 266 nM | 0.00644 s⁻¹ | 24200 M⁻¹ s⁻¹
B12 | 734 nM | 0.018 s⁻¹ | 24600 M⁻¹ s⁻¹
B13 | 550 nM | 0.00928 s⁻¹ | 16900 M⁻¹ s⁻¹
B14 | 853 nM | 0.00923 s⁻¹ | 10800 M⁻¹ s⁻¹
B15 | 2050 nM | 0.032 s⁻¹ | 15600 M⁻¹ s⁻¹
